Experimental data reported in article PMC7850899, “Nutrient transceptors physically interact with the yeast S6/protein kinase B homolog, Sch9, a TOR kinase target” (Biochemical Journal, 2021).

B1: GST-tagged Sch9 (GST-Sch9) [S. cerevisiae] / HA-tagged wild type Gap1 (HA-Gap1) [S. cerevisiae] (parent complex)
chain 1: MMNFFTSKSSNQDTGFSSQHQHPNGQNNGNNNSSTAGNDNGYPCKLVSSGPCASSNNGALFTNFTLQTATPTTAISQDLYAMGTTGITSENALFQMKSMNNGISSVNNNNSNTPTIITTSQEETNAGNVHGDTGGNSLQNSEDDNFSSSSTTKCLLSSTSSLSINQREAAAAAYGPDTDIPRGKLEVTIIEARDLVTRSKDSQPYVVCTFESSEFISNGPESLGAINNNNNNNNNNQHNQNQHINNNNENTNPDAASQHHNNNSGWNGSQLPSIKEHLKKKPLYTHRSSSQLDQLNSCSSVTDPSKRSSNSSSGSSNGPKNDSSHPIWHHKTTFDVLGSHSELDISVYDAAHDHMFLGQVRLYPMIHNLAHASQHQWHSLKPRVIDEVVSGDILIKWTYKQTKKRHYGPQDFEVLRLLGKGTFGQVYQVKKKDTQRIYAMKVLSKKVIVKKNEIAHTIGERNILVTTASKSSPFIVGLKFSFQTPTDLYLVTDYMSGGELFWHLQKEGRFSEDRAKFYIAELVLALEHLHDNDIVYRDLKPENILLDANGNIALCDFGLSKADLKDRTNTFCGTTEYLAPELLLDETGYTKMVDFWSLGVLIFEMCCGWSPFFAENNQKMYQKIAFGKVKFPRDVLSQEGRSFVKGLLNRNPKHRLGAIDDGRELRAHPFFADIDWEALKQKKIPPPFKPHLVSETDTSNFDPEFTTASTSYMNKHQPMMTATPLSPAMQAKFAGFTFVDESAIDEHVNNNRKFLQNSYFMEPGSFIPGNPNLPPDEDVIDDDGDEDINDGFNQEKNMNNSHSQMDFDGDQHMDDEFVSGRFEI
chain 2: MSNTSSYEKNNPDNLKHNGITIDSEFLTQEPITIPSNGSAVSIDETGSGSKWQDFKDSFKRVKPIEVDPNLSEAEKVAIITAQTPLKHHLKNRHLQMIAIGGAIGTGLLVGSGTALRTGGPASLLIGWGSTGTMIYAMVMALGELAVIFPISGGFTTYATRFIDESFGYANNFNYMLQWLVVLPLEIVSASITVNFWGTDPKYRDGFVALFWLAIVIINMFGVKGYGEAEFVFSFIKVITVVGFIILGIILNCGGGPTGGYIGGKYWHDPGAFAGDTPGAKFKGVCSVFVTAAFSFAGSELVGLAASESVEPRKSVPKAAKQVFWRITLFYILSLLMIGLLVPYNDKSLIGASSVDAAASPFVIAIKTHGIKGLPSVVNVVILIAVLSVGNSAIYACSRTMVALAEQRFLPEIFSYVDRKGRPLVGIAVTSAFGLIAFVAASKKEGEVFNWLLALSGLSSLFTWGGICICHIRFRKALAAQGRGLDELSFKSPTGVWGSYWGLFMVIIMFIAQFYVAVFPVGDSPSAEGFFEAYLSFPLVMVMYIGHKIYKRNWKLFIPAEKMDIDTGRREVDLDLLKQEIAEEKAIMATKPRWYRIWNFWC
B2: GST-tagged Sch9 (GST-Sch9) [S. cerevisiae] / Gap1 peptide 222-GVKGYGEAEFVFSFI-236 [S. cerevisiae] (parent complex)
chain 1: B1 chain 1
chain 2: GVKGYGEAEFVFSFI

Variants of: B1
Assay: GST pull-down assay; parent: 100

Variant | percent of parent
chain 2 V232K | 86.9 % of Gap1WT
chain 2 F231D | 98.9 % of Gap1WT
chain 2 F233D | 138 % of Gap1WT
chain 2 F231D, chain 2 V232K, chain 2 F233D | 102 % of Gap1WT

Variants of: B2
Assay: substitution peptide microarray; 100 or 500 µg/ml GST-Sch9; parent: 100; read off a plot

Variant | percent of parent
chain 2 GVKGYGEAEFVFCFI [chain 2 S13C] | ~240 % of wild type peptide
chain 2 GVKGYGEAEFVFSFE [chain 2 I15E] | ~150 % of wild type peptide
chain 2 GVKGYFEAEFVFSFI [chain 2 G6F] | ~330 % of wild type peptide
chain 2 FVKGYGEAEFVFSFI [chain 2 G1F] | ~140 % of wild type peptide
